Laboratory results reported in PMC10511321.

Assays:
[1] = target: SARS-CoV-2 Omicron BA.2.75.2 RBD, construct used for SPR (SARS-CoV-2) (UniProt P0DTC2); assay: SPR
[2] = target: SARS-CoV-2 Omicron BN.1 S glycoprotein, cell-surface expressed (Δ19) (SARS-CoV-2) (UniProt P0DTC2)
[3] = target: SARS-CoV-2 Omicron BQ.1.1 S glycoprotein, cell-surface expressed (Δ19) (SARS-CoV-2) (UniProt P0DTC2)
[4] = target: SARS-CoV-2 Omicron XBB.1 S glycoprotein, cell-surface expressed (Δ19) (SARS-CoV-2) (UniProt P0DTC2)

| Substance | Kd [1] [nM] | koff [1] [s⁻¹] | kon [1] [M⁻¹ s⁻¹] | neutralization of S VSV pseudovirus, fold reduction in potency relative to Wu [2] [fold] | neutralization of S VSV pseudovirus, fold reduction in potency relative to Wu [3] [fold] | neutralization of S VSV pseudovirus, fold reduction in potency relative to Wu [4] [fold] |
| --- | --- | --- | --- | --- | --- | --- |
| S309 Fab (fragment antigen-binding region of the S309 antibody, the parent antibody for sotrovimab), used for SPR | 0.86 | 2.8e-05 | 25500 |  |  |  |
| sotrovimab immunoglobulin G (IgG) (antibody) |  |  |  | 778 | 94 | 6.5 |
